Assays:
[1] = target: M1 muscarinic acetylcholine receptor, wild type (M1-WT), transfected in HEK293T cells (UniProt P12657)
[2] = target: phosphorylation-deficient M1 muscarinic acetylcholine receptor (M1-PD), transfected in HEK293T cells (UniProt P12657)

For “β-arrestin-2 (bystander BRET sensor in HEK293T cells) (from UniProt P32121 1-409) (natural protein)”, the Emax of ACh-stimulated β-arrestin-2 recruitment (bystander BRET: translocation of β-arrestin-2 to the cell membrane, HEK293T cells) [1] was 104 and the Emax of ACh-stimulated β-arrestin-2 recruitment (bystander BRET: translocation of β-arrestin-2 to the cell membrane, HEK293T cells) [2] was 40.7.
“Gq (Gαq, BRET biosensor of Gq activation in HEK cells) (from UniProt P50148 1-359) (natural protein)” showed an Emax of ACh-stimulated Gq activation (BRET biosensor, decrease in BRET, HEK cells) [1] of 100 and an Emax of ACh-stimulated Gq activation (BRET biosensor, decrease in BRET, HEK cells) [2] of 108.

— PMC8685681
